Like-named read-outs stand apart in the source and are kept apart here.
T1: CD25 on the surface of CTLL-2 cells (mouse cytotoxic T lymphocyte cell line) (mouse) (UniProt P01590)
T1 sequence (looked up): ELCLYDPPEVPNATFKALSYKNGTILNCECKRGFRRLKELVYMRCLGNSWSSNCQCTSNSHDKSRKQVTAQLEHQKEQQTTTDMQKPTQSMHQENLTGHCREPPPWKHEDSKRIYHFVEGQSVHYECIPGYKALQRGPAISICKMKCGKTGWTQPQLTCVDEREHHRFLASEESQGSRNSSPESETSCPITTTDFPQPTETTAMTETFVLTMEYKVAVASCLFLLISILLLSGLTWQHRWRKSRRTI

T2: CD25 on the surface of NK92 cells (human NK cell line) (human, UniProt P01589 22-272)
T2 sequence (looked up): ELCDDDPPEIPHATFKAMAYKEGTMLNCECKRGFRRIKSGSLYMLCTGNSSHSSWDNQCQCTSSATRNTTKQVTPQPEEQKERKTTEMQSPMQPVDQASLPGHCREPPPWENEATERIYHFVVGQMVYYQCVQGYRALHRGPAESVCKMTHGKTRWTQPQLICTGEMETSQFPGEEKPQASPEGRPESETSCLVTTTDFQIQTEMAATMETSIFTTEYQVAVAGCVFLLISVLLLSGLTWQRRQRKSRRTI

T3: CD25 protein (from Example 2)
T3 chain: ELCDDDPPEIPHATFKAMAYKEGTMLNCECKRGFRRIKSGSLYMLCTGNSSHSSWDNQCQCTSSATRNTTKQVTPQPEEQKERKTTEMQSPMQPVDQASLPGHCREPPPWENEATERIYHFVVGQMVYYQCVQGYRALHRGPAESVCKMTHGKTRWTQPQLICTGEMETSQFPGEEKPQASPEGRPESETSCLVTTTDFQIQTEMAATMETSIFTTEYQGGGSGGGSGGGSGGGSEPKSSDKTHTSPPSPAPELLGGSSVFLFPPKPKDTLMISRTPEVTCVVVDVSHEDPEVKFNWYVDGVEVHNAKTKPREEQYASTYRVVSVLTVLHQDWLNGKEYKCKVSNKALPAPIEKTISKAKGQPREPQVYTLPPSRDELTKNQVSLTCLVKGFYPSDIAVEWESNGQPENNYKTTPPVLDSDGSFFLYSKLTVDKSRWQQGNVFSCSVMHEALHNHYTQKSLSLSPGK

T4: CD25 on the surface of CTLL-2 cells (mouse cytotoxic T lymphocyte cell line) (mouse, UniProt P01590 22-268)
T4 sequence (looked up): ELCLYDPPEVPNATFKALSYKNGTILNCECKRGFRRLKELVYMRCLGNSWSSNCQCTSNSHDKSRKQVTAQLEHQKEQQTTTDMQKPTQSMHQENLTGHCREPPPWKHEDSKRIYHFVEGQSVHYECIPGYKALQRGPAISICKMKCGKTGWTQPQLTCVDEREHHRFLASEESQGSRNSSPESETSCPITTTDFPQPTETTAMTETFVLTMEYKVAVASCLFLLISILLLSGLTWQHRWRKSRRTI


What was measured:
[1] = target: T1, CD25 on the surface of CTLL-2 cells (mouse cytotoxic T lymphocyte cell line) (mouse); test: cell-based or functional assay
[2] = target: CD25 on the surface of NK92 cells (human NK cell line) (human) (UniProt P01589); test: cell-based or functional assay
[3] = target: T2, CD25 on the surface of NK92 cells …; test: cell-based or functional assay
[4] = target: T3, CD25 protein (from Example 2); test: ELISA on coated CD25, sample at 0.04 ug/ml, relative to rhIL-2 = 100%
Protocol: (§1) CD25 (from Example 2) was coated on a 96-well high adsorption microtiter plate (3590, Costar), washed and blocked. The sample to be tested was diluted to an appropriate concentration and added to wells.

[5] = target: T3, CD25 protein (from Example 2); test: ELISA on coated CD25, sample at 0.2 ug/ml, relative to rhIL-2 = 100%
Protocol: as §1

[6] = target: T3, CD25 protein (from Example 2); test: ELISA on coated CD25
Protocol: as §1

[7] = target: T3, CD25 protein (from Example 2); test: ELISA on coated CD25, sample at 1 ug/ml, relative to rhIL-2 = 100%
Protocol: as §1

[8] = target: T4, CD25 on the surface of CTLL-2 cells …; test: cell-based or functional assay
[9] = target: T2, CD25 on the surface of NK92 cells …; test: cell-based or functional assay; remark: listed apart in the source
[10] = target: T4, CD25 on the surface of CTLL-2 cells …; test: cell-based or functional assay; remark: listed apart in the source

Binder	EC50 (nM), CTLL-2 cell proliferation [1]	Potency relative to rhIL-2 (%), CTLL-2 cell proliferation [1]	EC50 (nM), NK92 cell proliferation [2]	Potency relative to rhIL-2 (%), NK92 cell proliferation [2]	EC50 (nM), NK92 cell proliferation [3]	Potency relative to rhIL-2 (%), NK92 cell proliferation [3]	Binding activity (%) [4]	Binding activity (%) [5]	binding result [6]	Binding activity (%) [7]	Potency relative to rhIL-2 (%), CTLL-2 cell proliferation [8]	EC50 (nM), NK92 cell proliferation [9]	Potency relative to rhIL-2 (%), NK92 cell proliferation [9]	EC50 (nM), CTLL-2 cell proliferation [10]	Potency relative to rhIL-2 (%), CTLL-2 cell proliferation [10]
IL-2gm4 (T3A, K49N, A73T), IgG1-Fc tag (Fc fusion) APASSSTKKTQLQLEHLLLDLQMILNGINNYKNPKLTRMLTFKFYMPKNATELKHLQCLEEELKPLEEVLNLTQSKNFHLRPRDLISNINVIVLELKGSETTFMCEYADETATIVEFLNRWITFAQSIISTLTGGGSGGGSGGGSGGGSEPKSSDKTHTSPPSPAPELEGGSSVFLFPPKPKDTLMISRTPEVTCVVVDVSHEDPEVKFNWYVDGVEVHNAKTKPREEQYASTYRVVSVLTVLHQDWLNGKAYACAVSNKALPAPIEKTISKAKGQPREPQVYTLPPSREEMTKNQVSLTCLVKGFYPSDIAVEWESNGQPENNYKTTPPVLDSDGSFFLYSKLTVDKSRWQQGNVFSCSVMHEALHNHYTQKSLSLSPGK	0.00919 nM	31.5%	0.0152 nM	34.8%	–	–	–	–	–	–	–	–	–	–	–
IL-2gm5 (T3A, M39N, K49N, A73T), IgG1-Fc tag (Fc fusion) APASSSTKKTQLQLEHLLLDLQMILNGINNYKNPKLTRNLTFKFYMPKNATELKHLQCLEEELKPLEEVLNLTQSKNFHLRPRDLISNINVIVLELKGSETTFMCEYADETATIVEFLNRWITFAQSIISTLTEPKSSDKTHTSPPSPAPELEGGSSVFLFPPKPKDTLMISRTPEVTCVVVDVSHEDPEVKFNWYVDGVEVHNAKTKPREEQYASTYRVVSVLTVLHQDWLNGKAYACAVSNKALPAPIEKTISKAKGQPREPQVYTLPPSREEMTKNQVSLTCLVKGFYPSDIAVEWESNGQPENNYKTTPPVLDSDGSFFLYSKLTVDKSRWQQGNVFSCSVMHEALHNHYTQKSLSLSPGK	0.173 nM	1.68%	0.0711 nM	7.42%	–	–	–	–	–	–	–	–	–	–	–
IL-2gm6 (T3A, M39N, K49N, A73T, D109N), IgG1-Fc tag (Fc fusion) APASSSTKKTQLQLEHLLLDLQMILNGINNYKNPKLTRNLTFKFYMPKNATELKHLQCLEEELKPLEEVLNLTQSKNFHLRPRDLISNINVIVLELKGSETTFMCEYANETATIVEFLNRWITFAQSIISTLTEPKSSDKTHTSPPSPAPELEGGSSVFLFPPKPKDTLMISRTPEVTCVVVDVSHEDPEVKFNWYVDGVEVHNAKTKPREEQYASTYRVVSVLTVLHQDWLNGKAYACAVSNKALPAPIEKTISKAKGQPREPQVYTLPPSREEMTKNQVSLTCLVKGFYPSDIAVEWESNGQPENNYKTTPPVLDSDGSFFLYSKLTVDKSRWQQGNVFSCSVMHEALHNHYTQKSLSLSPGK	5.95 nM	0.049%	0.824 nM	0.641%	–	–	–	–	–	–	–	–	–	–	–
IL-2qm (T3A, F42A, Y45A, L72G), IgG1-Fc tag (Fc fusion, copies 2 rests on that; also called IL-2qm-Fc; Rocheglicat (CN103492411B)) APASSSTKKTQLQLEHLLLDLQMILNGINNYKNPKLTRMLTAKFAMPKKATELKHLQCLEEELKPLEEVLNGAQSKNFHLRPRDLISNINVIVLELKGSETTFMCEYADETATIVEFLNRWITFAQSIISTLTEPKSSDKTHTSPPSPAPELEGGSSVFLFPPKPKDTLMISRTPEVTCVVVDVSHEDPEVKFNWYVDGVEVHNAKTKPREEQYASTYRVVSVLTVLHQDWLNGKAYACAVSNKALPAPIEKTISKAKGQPREPQVYTLPPSREEMTKNQVSLTCLVKGFYPSDIAVEWESNGQPENNYKTTPPVLDSDGSFFLYSKLTVDKSRWQQGNVFSCSVMHEALHNHYTQKSLSLSPGK	–	–	–	–	0.306 nM	1.73%	1.51%	0.99%	no binding (tested: 1 ug/ml)	0.74%	0%	–	–	–	–
IL-2gm9 (T3A, M39N, A73T), HIS tag (ligand, Expressed in Expi293F cells; also called IL-2gm9-His) APASSSTKKTQLQLEHLLLDLQMILNGINNYKNPKLTRNLTFKFYMPKKATELKHLQCLEEELKPLEEVLNLTQSKNFHLRPRDLISNINVIVLELKGSETTFMCEYADETATIVEFLNRWITFAQSIISTLTHHHHHH	–	–	–	–	–	–	1.51%	1.18%	no binding (tested: 1 ug/ml)	0.88%	–	1.07 nM	0.181%	2.38 nM	0.122%
IL-2gm10 (T3A, M39N, D109N), HIS tag (ligand, Expressed in Expi293F cells; also called IL-2gm10-His) APASSSTKKTQLQLEHLLLDLQMILNGINNYKNPKLTRNLTFKFYMPKKATELKHLQCLEEELKPLEEVLNLAQSKNFHLRPRDLISNINVIVLELKGSETTFMCEYANETATIVEFLNRWITFAQSIISTLTHHHHHH	–	–	–	–	–	–	1.51%	1.08%	no binding (tested: 1 ug/ml)	0.88%	–	12.7 nM	0.015%	15.6 nM	0.019%
IL-2gm15 (T3A, M39N, K49N, D109N), HIS tag (ligand, Expressed in Expi293F cells; also called IL-2gm15-His) APASSSTKKTQLQLEHLLLDLQMILNGINNYKNPKLTRNLTFKFYMPKNATELKHLQCLEEELKPLEEVLNLAQSKNFHLRPRDLISNINVIVLELKGSETTFMCEYANETATIVEFLNRWITFAQSIISTLTHHHHHH	–	–	–	–	–	–	1.36%	0.99%	no binding (tested: 1 ug/ml)	0.68%	–	7.76 nM	0.025%	16.5 nM	0.018%
IL-2gm14 (T3A, M39N, A73T, D109N), HIS tag (ligand, Expressed in Expi293F cells; also called IL-2gm14-His) APASSSTKKTQLQLEHLLLDLQMILNGINNYKNPKLTRNLTFKFYMPKKATELKHLQCLEEELKPLEEVLNLTQSKNFHLRPRDLISNINVIVLELKGSETTFMCEYANETATIVEFLNRWITFAQSIISTLTHHHHHH	–	–	–	–	–	–	1.51%	0.99%	no binding (tested: 1 ug/ml)	0.74%	–	23.2 nM	0.008%	47.9 nM	0.006%

— patent US20220227829A1 (SHANGHAI GP BIOTECH, published 2022)
